Literature values as cited in article PMC3433420.
Like-named read-outs stand apart in the source and are kept apart here.

Legend:
Details in all cases: cited from earlier work
BLK (Homo sapiens) [1] = biological target: BLK (Homo sapiens) (UniProt P51451)
ABL2 (Homo sapiens) [2] = biological target: ABL2 (Homo sapiens) (UniProt P42684)
ABL2 (Homo sapiens) [3] = biological target: ABL2 (Homo sapiens) (UniProt P42684); remark: listed apart in the source
ABL2 (Homo sapiens) [4] = biological target: ABL2 (Homo sapiens) (UniProt P42684); remark: listed apart in the source
ABL2 (Homo sapiens) [5] = biological target: ABL2 (Homo sapiens) (UniProt P42684); remark: listed apart in the source
PIK3R3-NC (Homo sapiens) [6] = biological target: PIK3R3-NC (Homo sapiens) (UniProt Q92569)
ABL1 (Homo sapiens) [7] = biological target: ABL1 (Homo sapiens) (UniProt P00519)
NCK2 (Homo sapiens) [8] = biological target: NCK2 (Homo sapiens) (UniProt O43639)
SHC1-PTB (Homo sapiens) [9] = biological target: SHC1-PTB (Homo sapiens) (UniProt P29353)
SHC1-PTB (Homo sapiens) [10] = biological target: SHC1-PTB (Homo sapiens) (UniProt P29353); remark: listed apart in the source
ITK (Homo sapiens) [11] = biological target: ITK (Homo sapiens) (UniProt Q08881)
ABL2 (Homo sapiens) [12] = biological target: ABL2 (Homo sapiens) (UniProt P42684); remark: listed apart in the source
ABL2 (Homo sapiens) [13] = biological target: ABL2 (Homo sapiens) (UniProt P42684); remark: listed apart in the source
PIK3R3-NC (Homo sapiens) [14] = biological target: PIK3R3-NC (Homo sapiens) (UniProt Q92569); remark: listed apart in the source
RASA1-N (Homo sapiens) [15] = biological target: RASA1-N (Homo sapiens) (UniProt P20936)
ZAP70-NC (Homo sapiens) = ZAP70-NC (Homo sapiens) (UniProt P43403)
GRB2 (Homo sapiens) [16] = biological target: GRB2 (Homo sapiens) (UniProt P62993)
GRB2 (Homo sapiens) [17] = biological target: GRB2 (Homo sapiens) (UniProt P62993); remark: listed apart in the source
PIK3R1-NC (Homo sapiens) [18] = biological target: PIK3R1-NC (Homo sapiens) (UniProt P27986)
NCK2 (Homo sapiens) [19] = biological target: NCK2 (Homo sapiens) (UniProt O43639); remark: listed apart in the source
PIK3R3-N (Homo sapiens) [20] = biological target: PIK3R3-N (Homo sapiens) (UniProt Q92569)
PIK3R2-NC (Homo sapiens) [21] = biological target: PIK3R2-NC (Homo sapiens) (UniProt O00459)
SHC1-PTB (Homo sapiens) [22] = biological target: SHC1-PTB (Homo sapiens) (UniProt P29353); remark: listed apart in the source
SHC1-PTB (Homo sapiens) [23] = biological target: SHC1-PTB (Homo sapiens) (UniProt P29353); remark: listed apart in the source
VAV2 (Homo sapiens) [24] = biological target: VAV2 (Homo sapiens) (UniProt P52735)
PIK3R2-N (Homo sapiens) [25] = biological target: PIK3R2-N (Homo sapiens) (UniProt O00459)
SYK-NC (Homo sapiens) = SYK-NC (Homo sapiens) (UniProt P43405)
SYK-C (Homo sapiens) = SYK-C (Homo sapiens) (UniProt P43405)
GRB7 (Homo sapiens) = GRB7 (Homo sapiens) (UniProt Q14451)
PIK3R1-N (Homo sapiens) = PIK3R1-N (Homo sapiens) (UniProt P27986)
BLK (Homo sapiens) [26] = biological target: BLK (Homo sapiens) (UniProt P51451); remark: listed apart in the source
ITK (Homo sapiens) [27] = biological target: ITK (Homo sapiens) (UniProt Q08881); remark: listed apart in the source
ABL2 (Homo sapiens) [28] = biological target: ABL2 (Homo sapiens) (UniProt P42684); remark: listed apart in the source
PLCG2-NC (Homo sapiens) = PLCG2-NC (Homo sapiens) (UniProt P16885)
PIK3R3-NC (Homo sapiens) [29] = biological target: PIK3R3-NC (Homo sapiens) (UniProt Q92569); remark: listed apart in the source
RASA1-N (Homo sapiens) [30] = biological target: RASA1-N (Homo sapiens) (UniProt P20936); remark: listed apart in the source
GRB2 (Homo sapiens) [31] = biological target: GRB2 (Homo sapiens) (UniProt P62993); remark: listed apart in the source
PIK3R1-NC (Homo sapiens) [32] = biological target: PIK3R1-NC (Homo sapiens) (UniProt P27986); remark: listed apart in the source
ABL1 (Homo sapiens) [33] = biological target: ABL1 (Homo sapiens) (UniProt P00519); remark: listed apart in the source
NCK2 (Homo sapiens) [34] = biological target: NCK2 (Homo sapiens) (UniProt O43639); remark: listed apart in the source
GRB10 (Homo sapiens) = GRB10 (Homo sapiens) (UniProt Q13322)
PIK3R3-N (Homo sapiens) [35] = biological target: PIK3R3-N (Homo sapiens) (UniProt Q92569); remark: listed apart in the source
SRC (Homo sapiens) = SRC (Homo sapiens) (UniProt P12931)
PIK3R2-NC (Homo sapiens) [36] = biological target: PIK3R2-NC (Homo sapiens) (UniProt O00459); remark: listed apart in the source
VAV2 (Homo sapiens) [37] = biological target: VAV2 (Homo sapiens) (UniProt P52735); remark: listed apart in the source
YES1 (Homo sapiens) = YES1 (Homo sapiens) (UniProt P07947)
PIK3R2-N (Homo sapiens) [38] = biological target: PIK3R2-N (Homo sapiens) (UniProt O00459); remark: listed apart in the source

Sequence of NCK2 (Homo sapiens) (O43639 280-380): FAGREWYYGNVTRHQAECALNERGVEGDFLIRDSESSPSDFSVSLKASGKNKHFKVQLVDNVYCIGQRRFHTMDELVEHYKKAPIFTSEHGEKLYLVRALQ
Sequence of SHC1-PTB (Homo sapiens) (P29353 483-583): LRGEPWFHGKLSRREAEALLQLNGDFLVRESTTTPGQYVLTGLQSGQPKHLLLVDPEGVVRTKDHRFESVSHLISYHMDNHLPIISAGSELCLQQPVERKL
Sequence of ABL2 (Homo sapiens) (P42684 168-268): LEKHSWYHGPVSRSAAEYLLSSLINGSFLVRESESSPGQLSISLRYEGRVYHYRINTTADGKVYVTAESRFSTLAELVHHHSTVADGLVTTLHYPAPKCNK
Sequence of GRB2 (Homo sapiens) (P62993 55-157): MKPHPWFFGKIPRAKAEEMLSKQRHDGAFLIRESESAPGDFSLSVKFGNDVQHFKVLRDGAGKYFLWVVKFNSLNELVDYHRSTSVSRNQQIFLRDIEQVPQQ
Sequence of RASA1-N (Homo sapiens) (P20936 176-446): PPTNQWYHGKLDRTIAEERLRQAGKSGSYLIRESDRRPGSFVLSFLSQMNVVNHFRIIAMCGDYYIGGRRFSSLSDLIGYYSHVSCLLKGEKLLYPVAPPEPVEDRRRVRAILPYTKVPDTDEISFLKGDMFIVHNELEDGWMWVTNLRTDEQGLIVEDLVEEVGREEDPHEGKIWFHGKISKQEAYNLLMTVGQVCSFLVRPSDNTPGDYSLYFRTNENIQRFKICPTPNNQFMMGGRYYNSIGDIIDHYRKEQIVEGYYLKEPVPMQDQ
Sequence of BLK (Homo sapiens) (P51451 119-225): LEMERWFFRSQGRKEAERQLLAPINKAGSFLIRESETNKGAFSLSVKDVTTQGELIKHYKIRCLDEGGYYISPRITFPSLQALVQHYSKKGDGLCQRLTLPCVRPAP
Sequence of ABL1 (Homo sapiens) (P00519 122-222): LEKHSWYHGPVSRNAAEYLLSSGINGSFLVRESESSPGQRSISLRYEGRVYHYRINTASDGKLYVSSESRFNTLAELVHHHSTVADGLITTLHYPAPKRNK
Sequence of PIK3R1-NC (Homo sapiens) (P27986 328-723): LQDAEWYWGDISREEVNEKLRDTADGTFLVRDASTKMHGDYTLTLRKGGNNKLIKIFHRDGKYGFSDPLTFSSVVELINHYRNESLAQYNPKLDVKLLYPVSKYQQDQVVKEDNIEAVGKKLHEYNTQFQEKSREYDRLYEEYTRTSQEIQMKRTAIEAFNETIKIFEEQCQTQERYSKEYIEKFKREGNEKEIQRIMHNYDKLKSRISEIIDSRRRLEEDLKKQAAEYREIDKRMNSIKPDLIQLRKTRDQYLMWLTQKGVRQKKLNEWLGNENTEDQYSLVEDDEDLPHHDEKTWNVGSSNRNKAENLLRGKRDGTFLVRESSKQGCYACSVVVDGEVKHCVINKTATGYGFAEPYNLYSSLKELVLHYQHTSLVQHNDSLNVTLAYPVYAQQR
Sequence of ITK (Homo sapiens) (Q08881 234-343): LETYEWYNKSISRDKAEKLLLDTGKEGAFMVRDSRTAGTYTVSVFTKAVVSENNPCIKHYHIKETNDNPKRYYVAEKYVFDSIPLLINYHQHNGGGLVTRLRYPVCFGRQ
Sequence of VAV2 (Homo sapiens) (P52735 668-772): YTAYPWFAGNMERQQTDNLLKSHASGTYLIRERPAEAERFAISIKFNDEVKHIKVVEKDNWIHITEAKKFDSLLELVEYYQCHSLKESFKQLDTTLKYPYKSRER
Sequence of PIK3R2-NC (Homo sapiens) (O00459 325-721): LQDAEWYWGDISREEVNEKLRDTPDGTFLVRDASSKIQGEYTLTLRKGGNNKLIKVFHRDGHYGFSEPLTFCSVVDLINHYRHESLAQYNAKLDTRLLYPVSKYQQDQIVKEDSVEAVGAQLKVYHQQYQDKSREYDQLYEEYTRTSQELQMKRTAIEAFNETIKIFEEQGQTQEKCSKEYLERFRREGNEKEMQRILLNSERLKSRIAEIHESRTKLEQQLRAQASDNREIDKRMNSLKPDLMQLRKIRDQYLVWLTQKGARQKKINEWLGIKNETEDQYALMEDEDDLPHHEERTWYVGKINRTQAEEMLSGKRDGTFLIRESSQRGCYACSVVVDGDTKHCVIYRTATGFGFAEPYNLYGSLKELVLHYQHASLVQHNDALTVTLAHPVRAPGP
Sequence of PIK3R2-N (Homo sapiens) (O00459 325-721): as above
Sequence of PIK3R1-N (Homo sapiens) (P27986 328-723): as the sequence (P27986 328-723) above
Sequence of YES1 (Homo sapiens) (P07947 153-260): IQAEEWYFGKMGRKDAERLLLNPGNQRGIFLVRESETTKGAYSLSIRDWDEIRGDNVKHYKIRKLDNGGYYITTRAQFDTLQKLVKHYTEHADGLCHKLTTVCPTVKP
Sequence of ZAP70-NC (Homo sapiens) (P43403 5-259): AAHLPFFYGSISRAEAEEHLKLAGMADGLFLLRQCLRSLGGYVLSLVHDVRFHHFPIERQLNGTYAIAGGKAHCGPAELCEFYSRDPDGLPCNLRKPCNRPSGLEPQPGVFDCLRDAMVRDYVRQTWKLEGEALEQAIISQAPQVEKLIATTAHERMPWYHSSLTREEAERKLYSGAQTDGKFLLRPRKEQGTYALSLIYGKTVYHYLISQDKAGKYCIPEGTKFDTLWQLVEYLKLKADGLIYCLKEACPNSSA
Sequence of GRB7 (Homo sapiens) (Q14451 426-532): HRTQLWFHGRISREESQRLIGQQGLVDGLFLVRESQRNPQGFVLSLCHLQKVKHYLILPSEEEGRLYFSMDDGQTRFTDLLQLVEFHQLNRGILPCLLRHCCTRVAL
Sequence of GRB10 (Homo sapiens) (Q13322 488-579): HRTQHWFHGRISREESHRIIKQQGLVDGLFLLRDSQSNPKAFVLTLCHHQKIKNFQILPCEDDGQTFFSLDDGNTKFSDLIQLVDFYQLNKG
Sequence of PLCG2-NC (Homo sapiens) (P16885 527-740): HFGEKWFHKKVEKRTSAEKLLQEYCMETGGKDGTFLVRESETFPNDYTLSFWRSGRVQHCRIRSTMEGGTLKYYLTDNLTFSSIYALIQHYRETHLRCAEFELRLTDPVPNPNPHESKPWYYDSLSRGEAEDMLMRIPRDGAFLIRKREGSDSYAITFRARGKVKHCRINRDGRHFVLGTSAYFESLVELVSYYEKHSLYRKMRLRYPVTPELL

Question: Which apparent Kd (screen) (BLK (Homo sapiens) [1]) does the source give for …pYHAEGGKVd here?
Answer: 1710 nM

Question: What about the apparent Kd (screen) (ABL2 (Homo sapiens) [2]) of the same substance?
Answer: 1080 nM

Question: What about the apparent Kd (screen) (ABL2 (Homo sapiens) [3]) of the same substance?
Answer: 2000 nM

Question: For …pYHNASNGPd, which apparent Kd (screen) (ABL2 (Homo sapiens) [4]) is on record?
Answer: 35 nM

Question: What about the apparent Kd (screen) (ABL2 (Homo sapiens) [5]) of the same substance?
Answer: 755 nM

Question: What about the apparent Kd (screen) (PIK3R3-NC (Homo sapiens) [6]) of the same substance?
Answer: 2000 nM

Question: And the apparent Kd (screen) (ABL1 (Homo sapiens) [7])?
Answer: 1820 nM

Question: And the apparent Kd (screen) (NCK2 (Homo sapiens) [8])?
Answer: 2000 nM

Question: What about the apparent Kd (screen) (SHC1-PTB (Homo sapiens) [9]) of the same substance?
Answer: 717 nM

Question: What about the apparent Kd (screen) (SHC1-PTB (Homo sapiens) [10]) of the same substance?
Answer: 277 nM

Question: For …pYLNTVQPTd, which apparent Kd (screen) (ITK (Homo sapiens) [11]) is on record?
Answer: 1760 nM

Question: And the apparent Kd (screen) (ABL2 (Homo sapiens) [12])?
Answer: 120 nM

Question: What about the apparent Kd (screen) (ABL2 (Homo sapiens) [13]) of the same substance?
Answer: 85 nM

Question: And the apparent Kd (screen) (PIK3R3-NC (Homo sapiens) [14])?
Answer: 1690 nM

Question: And the apparent Kd (screen) (RASA1-N (Homo sapiens) [15])?
Answer: 388 nM

Question: And the apparent Kd (screen) (ZAP70-NC (Homo sapiens))?
Answer: 1140 nM

Question: And the apparent Kd (screen) (GRB2 (Homo sapiens) [16])?
Answer: 422 nM

Question: What about the apparent Kd (screen) (GRB2 (Homo sapiens) [17]) of the same substance?
Answer: 724 nM

Question: What about the apparent Kd (screen) (PIK3R1-NC (Homo sapiens) [18]) of the same substance?
Answer: 1570 nM

Question: What about the apparent Kd (screen) (NCK2 (Homo sapiens) [19]) of the same substance?
Answer: 326 nM

Question: And the apparent Kd (screen) (PIK3R3-N (Homo sapiens) [20])?
Answer: 838 nM

Question: And the apparent Kd (screen) (PIK3R2-NC (Homo sapiens) [21])?
Answer: 857 nM

Question: What about the apparent Kd (screen) (SHC1-PTB (Homo sapiens) [22]) of the same substance?
Answer: 173 nM

Question: And the apparent Kd (screen) (SHC1-PTB (Homo sapiens) [23])?
Answer: 133 nM

Question: And the apparent Kd (screen) (VAV2 (Homo sapiens) [24])?
Answer: 373 nM

Question: What about the apparent Kd (screen) (PIK3R2-N (Homo sapiens) [25]) of the same substance?
Answer: 763 nM

Question: Which results are given for …pYINQSVPKd?
Answer: apparent Kd (screen) (SYK-NC (Homo sapiens)): 908 nM; apparent Kd (screen) (SYK-C (Homo sapiens)): 1920 nM; apparent Kd (screen) (GRB7 (Homo sapiens)): 1980 nM; apparent Kd (screen) (PIK3R1-N (Homo sapiens)): 1080 nM; apparent Kd (screen) (BLK (Homo sapiens) [26]): 300 nM; apparent Kd (screen) (ITK (Homo sapiens) [27]): 219 nM; apparent Kd (screen) (ABL2 (Homo sapiens) [28]): 152 nM; apparent Kd (screen) (PLCG2-NC (Homo sapiens)): 1630 nM; apparent Kd (screen) (PIK3R3-NC (Homo sapiens) [29]): 1020 nM; apparent Kd (screen) (RASA1-N (Homo sapiens) [30]): 180 nM; apparent Kd (screen) (GRB2 (Homo sapiens) [31]): 198 nM; apparent Kd (screen) (PIK3R1-NC (Homo sapiens) [32]): 670 nM; apparent Kd (screen) (ABL1 (Homo sapiens) [33]): 916 nM; apparent Kd (screen) (NCK2 (Homo sapiens) [34]): 1100 nM; apparent Kd (screen) (GRB10 (Homo sapiens)): 1300 nM; apparent Kd (screen) (PIK3R3-N (Homo sapiens) [35]): 507 nM; apparent Kd (screen) (SRC (Homo sapiens)): 1790 nM; apparent Kd (screen) (PIK3R2-NC (Homo sapiens) [36]): 1410 nM; apparent Kd (screen) (VAV2 (Homo sapiens) [37]): 542 nM; apparent Kd (screen) (YES1 (Homo sapiens)): 337 nM; apparent Kd (screen) (PIK3R2-N (Homo sapiens) [38]): 453 nM
